{"source": "patent US20120142040", "system": "H3K4me2-biotin peptide (1ARTKme2QTARKSTGGKAPRKQLYKbiotin)", "sequence (chain, as listed by the source)": "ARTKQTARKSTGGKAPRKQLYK"}
{"substance": "GST-LSD1 (prepared in-house)", "values": [{"measurement": "shift of the mass spectra after the demethylase assay (MassSQUIRM, MALDI mass spectrometry)", "value": "Upon addition of LSD1, we observed a shift of spectra to greater mass, indicating a mixed population of methylation states"}]}
